From patent US20180193454A1 (IMMUNEXT, published 2018) come the findings set out here.

For orientation: EC50 (read off the curve) means the concentration that produces a half-maximal response. Higher therefore signals weaker potency. Broadly, the Kd is a measure of binding affinity in units of concentration. The low end stands for higher affinity, the high end for lower affinity. The term koff denotes the rate constant with which the complex falls apart. Usually kon stands for the rate constant with which the complex forms.

Residue numbers refer to the chain shown, from its start.

The target in experiment [1] is T1, CD154 expressed on cells (CD154 expressing Jurkat cells; T cell CD154) (UniProt P29965 1-261, limits assumed).
T1 construct: whole, on cells; also called CD154 (expressed on Jurkat cells)
T1 sequence (looked up): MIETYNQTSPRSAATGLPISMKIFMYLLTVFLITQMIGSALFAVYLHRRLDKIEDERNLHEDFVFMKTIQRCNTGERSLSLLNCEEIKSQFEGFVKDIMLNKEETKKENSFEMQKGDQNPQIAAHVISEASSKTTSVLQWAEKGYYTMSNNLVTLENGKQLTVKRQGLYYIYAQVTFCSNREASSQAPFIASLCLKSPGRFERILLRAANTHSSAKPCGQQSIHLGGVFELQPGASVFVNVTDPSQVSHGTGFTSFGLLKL
As to the kind of experiment: binding to CD40L (CD154) expressing Jurkat cells, readout % normalized mean MFI (panel title 'CD40L Jurkat Binding'; legend paragraph 14 calls it a BIAcore assay).

For experiment [2], the target named is T2, human CD154 (human, UniProt P29965 113-261, limits assumed).
T2 construct: also called CD154 antigen; CD40L
T2 sequence (looked up): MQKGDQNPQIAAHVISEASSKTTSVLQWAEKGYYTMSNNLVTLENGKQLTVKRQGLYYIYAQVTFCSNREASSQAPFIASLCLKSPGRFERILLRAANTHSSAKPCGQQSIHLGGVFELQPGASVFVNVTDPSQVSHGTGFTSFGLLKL
Put plainly: SPR, Biacore 3000, 25 C; antibody immobilized, CD154 antigen flowed over; average n = 6. On the procedure: (§1) Binding experiments were performed on Biacore […] at 25° C. […] Binding of antigen to the tested antibodies was monitored in real time. From the observed kₒₙ, the koff and KD was determined for each variant.
(§2) Scoring analysis was performed using specific analyte concentrations. At the tested concentration, binding should be observed even if the ligand binding affinity is relatively weak. Full kinetics may be performed by known methods. For the molecular interactions with fast off rate, steady state kinetics may be used to determine the KD value.
(SPR reads the build-up and loss of mass on a sensor chip optically.)

For experiment [3], the target named is T2, human CD154. As to the kind of experiment: SPR, Biacore 3000, 25 C; antibody immobilized, CD154 antigen flowed over; average n = 6; exponent sign is a misprint in the cell ('+04'); value taken as E-04, as fixed by the same row's KD x Ka (3.62E-11 x 4.11E+06 = 1.49E-04). On the procedure:
as §1, §2

For experiment [4], the target named is T1, CD154 expressed on cells (CD154 …). As to the kind of experiment: binding to CD154 expressing Jurkat cells (legend calls it BIAcore binding assays), FIG. 3.

B1: IDEC-131, humanized anti-human CD154 IgG1 antibody (antibody, V domains shown)
VH: EVQLQESGPGLVKPSETLSLTCTVSGDSITNGFWIWIRKPPGNKLEYMGYISYSGSTYYNPSLKSRISISRDTSKNQFSLKLSSVTAADTGVYYCACRSYGRTPYYFDFWGQGTTLTVSS
VL: DIVMTQSPSFLSASVGDRVTITCKASQNVITAVAWYQQKPGKSPKLLIYSASNRYTGVPDRFSGSGSGTDFTLTISSLQPEDFADYFCQQYNSYPYTFGGGTKLEIK
notes: Humanized human IgG1 derived from mouse antibody 24-31
In the case of B1, the concentration giving a half-maximal response (EC50 (read off the curve)) in experiment [1] was around 4 nM. Further, in the experiment with human CD154 [2], the “Fold improvement in KD (compared to IDEC131)” value (“Fold improvement in KD” below) worked out at 1 fold, the Kd was 0.151 nM, the koff turned out to be 0.000525 s⁻¹ and the kon was 3.47e+06 M⁻¹ s⁻¹.

B2: variant 25, humanized anti-human CD154 antibody derived from IDEC-131 (antibody, V domains shown)
VH: B1 VH with C97Y, F109Y
VL: B1 VL with V29L, I30N, T31H, N92D, S93D
Turning to B2, in the experiment with human CD154 [2], the “Fold improvement in KD” value is 3.9 fold, the Kd is 0.0362 nM and the kon is 4.11e+06 M⁻¹ s⁻¹. In addition, in the experiment with human CD154 [3], the koff came out at 0.000149 s⁻¹.

B3: variant 28, humanized anti-human CD154 antibody derived from IDEC-131 (antibody, V domains shown)
VH: B1 VH with C97Y, F109Y
VL: B1 VL with S26P, Q27S, N28S, V29L, I30G, T31H, N92D, S93D
As for B3, in the experiment with human CD154 [2], the “Fold improvement in KD” value stood at 4.8 fold, the Kd was found to be 0.0315 nM, the koff was 0.000115 s⁻¹ and the kon was 3.65e+06 M⁻¹ s⁻¹.

B4: variant 22, humanized anti-human CD154 antibody derived from IDEC-131 (antibody, V domains shown)
VH: B1 VH with C97Y, F109Y
VL: B1 VL with Q27S, V29L, I30G, T31N, N92D, S93D
B4: in the experiment with human CD154 [2], the “Fold improvement in KD” value turned out to be 5.2 fold, binding was put at a Kd of 0.0262 nM, the koff is 0.000117 s⁻¹ and the kon was found to be 4.48e+06 M⁻¹ s⁻¹.

B5: INX021 (variant 21), humanized anti-human CD154 IgG1 antibody derived from IDEC-131 (antibody, V domains shown)
VH: B1 VH with C97Y, F109Y
VL: B1 VL with Q27S, V29L, I30G, T31H, N92D, S93D
B5: in the experiment with human CD154 [2], the “Fold improvement in KD” value was 4.7 fold, the Kd came to 0.0289 nM, the off-rate (koff) was 0.000128 s⁻¹ and the kon is 4.42e+06 M⁻¹ s⁻¹. For the same molecule, in experiment [4], the “fold increase in binding affinity compared to IDEC-131” value is around 5 fold.

B6: variant 31, humanized anti-human CD154 antibody derived from IDEC-131 (antibody, V domains shown)
VH: B1 VH with C97Y, F109Y
VL: B1 VL with S26N, N28P, V29L, I30G, T31H, N92D, S93D
B6: in the experiment with human CD154 [2], the “Fold improvement in KD” value amounted to 4.8 fold, the Kd is 0.0341 nM, the koff was determined as 0.000123 s⁻¹ and the kon came out at 3.61e+06 M⁻¹ s⁻¹.

B7: variant 29, humanized anti-human CD154 antibody derived from IDEC-131 (antibody, V domains shown)
VH: B1 VH with C97Y, F109Y
VL: B1 VL with A25G, S26N, N28P, V29L, I30G, T31H, N92D, S93D
For B7, in the experiment with human CD154 [2], the “Fold improvement in KD” value amounted to 4.2 fold, binding was put at a Kd of 0.0344 nM, the off-rate (koff) amounted to 0.000133 s⁻¹ and the kon came out at 3.86e+06 M⁻¹ s⁻¹.

B8: variant 24, humanized anti-human CD154 antibody derived from IDEC-131 (antibody, V domains shown)
VH: B1 VH with C97Y, F109Y
VL: B1 VL with S26P, V29L, I30G, N92D, S93D
For the molecule B8, in the experiment with human CD154 [2], the “Fold improvement in KD” value came out at 4.9 fold, the Kd was 0.0364 nM, the koff amounted to 0.000135 s⁻¹ and the kon amounted to 3.7e+06 M⁻¹ s⁻¹.

B9: variant 26, humanized anti-human CD154 antibody derived from IDEC-131 (antibody, V domains shown)
VH: B1 VH with C97Y, F109Y
VL: B1 VL with N28H, V29L, I30G, N92D, S93D
On to B9, for which, in the experiment with human CD154 [2], the “Fold improvement in KD” value amounted to 2.5 fold, the Kd came to 0.0576 nM and the kon amounted to 2.03e+06 M⁻¹ s⁻¹.

B10: variant 27, humanized anti-human CD154 antibody derived from IDEC-131 (antibody, V domains shown)
VH: B1 VH with C97Y, F109Y
VL: B1 VL with N28H, V29L, I30G, T31H, N92D, S93D
B10: in the experiment with human CD154 [2], the “Fold improvement in KD” value was determined as 4.5 fold, the Kd was determined as 0.0336 nM, the koff worked out at 0.00012 s⁻¹ and the kon was 3.58e+06 M⁻¹ s⁻¹.

B11: variant 30, humanized anti-human CD154 antibody derived from IDEC-131 (antibody, V domains shown)
VH: B1 VH with C97Y, F109Y
VL: B1 VL with S26G, Q27H, N28S, V29L, I30G, N92D, S93D
With B11, in the experiment with human CD154 [2], the “Fold improvement in KD” value turned out to be 4.4 fold, the Kd worked out at 0.0329 nM, the koff is 0.00014 s⁻¹ and the kon stood at 4.24e+06 M⁻¹ s⁻¹.

B12: variant 23, humanized anti-human CD154 antibody derived from IDEC-131 (antibody, V domains shown)
VH: B1 VH with C97Y, F109Y
VL: B1 VL with A25G, Q27S, N28P, V29L, I30G, T31H, N92D, S93D
notes: also called combination #23
In the case of B12, in the experiment with human CD154 [2], the “Fold improvement in KD” value is 4.2 fold; the affinity, expressed as Kd, was 0.0421 nM; the koff stood at 0.000141 s⁻¹; the kon was determined as 3.35e+06 M⁻¹ s⁻¹.
